Assay results: patent US20220025023A1 (AC IMMUNE, published 2022)
Where no end group is shown, it is not given here.

Experiments:
TDP-3 peptide = target: T1, TDP-3 peptide (human); assay: Luminex bead assay, serial dilution of the antibody, MFI
T1 construct: Irrelevant control peptide; conjugated to Luminex beads in the assay; also called TDP-43 aa 310-370; irrelevant target
T1 peptide: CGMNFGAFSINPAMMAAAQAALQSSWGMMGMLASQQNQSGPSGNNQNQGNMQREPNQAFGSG

TDP-215 peptide = target: T2, TDP-215 peptide (human); assay: indirect ELISA, 8-mer peptide library, OD 405 nm
T2 construct: same ELISA method as for the biotinylated 15-mers
T2 peptide: GDVMDVFI
Method: (§1) Serum-free supernatants were harvested from stable hybridomas. The supernatants containing antibodies of interest were then screened by an indirect ELISA assay to determine epitopes. Epitopes were mapped using a library of TDP-43 15-mer peptides. Briefly, 96-well streptavidin-coated 96-well ELISA plates were incubated with 5 μg/mL of biotinylated 15-mer peptides spanning the amino acids (aa) 199-285 of human TDP-43 with 9 aa offset and 6 aa overlap. Plates were washed thoroughly with 0.05% Tween-20/PBS and then blocked with 1% bovine serum albumin (BSA) in 0.05% Tween-20/PBS for 1 hour at 37° C. The antibody contained in the hybridoma supernatant was then added at the indicated dilutions, and incubated for 2 hours at 37° C. after which the plates were washed as described previously. An AP-conjugated anti-mouse IgG secondary antibody (Jackson ImmunoResearch Laboratories, United Kingdom) was added at 1/1000 dilution in 0.05% Tween-20/PBS for 1 hour at 37° C. After the final wash, plates were incubated with pNPP (Sigma-Aldrich, Switzerland) an AP substrate solution, and read at 405 nm using an ELISA plate reader (Tecan).
(§2) Furthermore, antibodies were tested using an indirect ELISA on a peptide library of 8-mer peptides with 7 aa overlap covering the sequence of human TDP-43 from aa 210 to aa 231, using the same ELISA method as describe previously in this section.

BSA = target: T3, BSA (bovine, UniProt P02769); assay: indirect ELISA, control coat in the 15-mer series, hybridoma supernatant
T3 construct: not specified; also called bovine serum albumin
T3 sequence (P02769 25-607 limits assumed): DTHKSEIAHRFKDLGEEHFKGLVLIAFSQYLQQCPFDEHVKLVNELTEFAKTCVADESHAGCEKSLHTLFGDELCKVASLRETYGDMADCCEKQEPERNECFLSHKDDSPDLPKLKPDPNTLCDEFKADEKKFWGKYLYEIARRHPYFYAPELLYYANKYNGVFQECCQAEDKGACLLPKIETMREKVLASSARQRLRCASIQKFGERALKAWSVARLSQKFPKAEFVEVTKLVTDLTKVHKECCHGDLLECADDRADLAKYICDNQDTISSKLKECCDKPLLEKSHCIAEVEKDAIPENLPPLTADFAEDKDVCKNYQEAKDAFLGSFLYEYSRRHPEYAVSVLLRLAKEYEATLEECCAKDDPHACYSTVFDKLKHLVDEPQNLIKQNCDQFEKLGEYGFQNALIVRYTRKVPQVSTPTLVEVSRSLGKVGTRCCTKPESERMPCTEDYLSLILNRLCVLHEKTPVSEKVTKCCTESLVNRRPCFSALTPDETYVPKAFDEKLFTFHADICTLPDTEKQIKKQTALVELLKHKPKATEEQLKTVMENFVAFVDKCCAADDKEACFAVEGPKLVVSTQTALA

TP-24 peptide = target: T4, TP-24 peptide (human, also: biotinylated, site not given here); assay: indirect ELISA, biotinylated 15-mer peptide on streptavidin plate, hybridoma supernatant
T4 construct: 15-mer of human TDP-43 from the library spanning aa 199-285; captured on streptavidin plates
T4 peptide: REFFSQYGDVMDVFI
Method: as §1

TP-25 peptide = target: T5, TP-25 peptide (human, also: biotinylated, site not given here); assay: as above
T5 construct: 15-mer of human TDP-43 from the library spanning aa 199-285; captured on streptavidin plates
T5 peptide: VMDVFIPKPFRAFAF
Method: as §1

TDP-210 peptide = target: T6, TDP-210 peptide (human); assay: indirect ELISA, 8-mer peptide library
T6 construct: 8-mer of human TDP-43; same ELISA method as for the biotinylated 15-mers
T6 peptide: FFSQYGDV
Method: as §1, §2

TDP-220 peptide = target: T7, TDP-220 peptide (human); assay: indirect ELISA, 8-mer peptide library
T7 construct: 8-mer of human TDP-43; same ELISA method as for the biotinylated 15-mers
T7 peptide: VFIPKPFR
Method: as §1, §2

TDP-221 peptide = target: T8, TDP-221 peptide (human); assay: indirect ELISA, 8-mer peptide library
T8 construct: 8-mer of human TDP-43; same ELISA method as for the biotinylated 15-mers
T8 peptide: FIPKPFRA
Method: as §1, §2

TDP-223 peptide = target: T9, TDP-223 peptide (human); assay: indirect ELISA, 8-mer peptide library
T9 construct: 8-mer of human TDP-43; same ELISA method as for the biotinylated 15-mers
T9 peptide: PKPFRAFA
Method: as §1, §2

TDP-218 peptide = target: T10, TDP-218 peptide (human); assay: indirect ELISA, 8-mer peptide library
T10 construct: 8-mer of human TDP-43; same ELISA method as for the biotinylated 15-mers
T10 peptide: MDVFIPKP
Method: as §1, §2

TDP-222 peptide = target: T11, TDP-222 peptide (human); assay: indirect ELISA, 8-mer peptide library
T11 construct: 8-mer of human TDP-43; same ELISA method as for the biotinylated 15-mers
T11 peptide: IPKPFRAF
Method: as §1, §2

TDP-213 peptide = target: T12, TDP-213 peptide (human); assay: indirect ELISA, 8-mer peptide library
T12 construct: 8-mer of human TDP-43; same ELISA method as for the biotinylated 15-mers
T12 peptide: QYGDVMDV
Method: as §1, §2

TDP-212 peptide = target: T13, TDP-212 peptide (human); assay: indirect ELISA, 8-mer peptide library
T13 construct: 8-mer of human TDP-43; same ELISA method as for the biotinylated 15-mers
T13 peptide: SQYGDVMD
Method: as §1, §2

TDP-224 peptide = target: T14, TDP-224 peptide (human); assay: indirect ELISA, 8-mer peptide library
T14 construct: 8-mer of human TDP-43; same ELISA method as for the biotinylated 15-mers
T14 peptide: KPFRAFAF
Method: as §1, §2

TDP-217 peptide = target: T15, TDP-217 peptide (human); assay: indirect ELISA, 8-mer peptide library
T15 construct: 8-mer of human TDP-43; same ELISA method as for the biotinylated 15-mers
T15 peptide: VMDVFIPK
Method: as §1, §2

TDP-211 peptide = target: T16, TDP-211 peptide (human); assay: indirect ELISA, 8-mer peptide library
T16 construct: 8-mer of human TDP-43; same ELISA method as for the biotinylated 15-mers
T16 peptide: FSQYGDVM
Method: as §1, §2

TDP-214 peptide = target: T17, TDP-214 peptide (human); assay: indirect ELISA, 8-mer peptide library
T17 construct: 8-mer of human TDP-43; same ELISA method as for the biotinylated 15-mers
T17 peptide: YGDVMDVF
Method: as §1, §2

TDP-219 peptide = target: T18, TDP-219 peptide (human); assay: indirect ELISA, 8-mer peptide library
T18 construct: 8-mer of human TDP-43; same ELISA method as for the biotinylated 15-mers
T18 peptide: DVFIPKPF
Method: as §1, §2

TP-29 = target: T19, TP-29 (also: biotinylated, site not given here); assay: indirect ELISA, biotinylated 15-mer on streptavidin plate, hybridoma supernatant
T19 construct: also called TP-29 peptide
T19 peptide: ISVHISNAEPKHNSN
Method: as §1

TP-31 = target: T20, TP-31 (also: biotinylated, site not given here); assay: as above
T20 construct: also called TP-31 peptide
T20 peptide: ERSGRFGGNPGGFGN
Method: as §1

TP-27 = target: T21, TP-27 (also: biotinylated, site not given here); assay: as above
T21 construct: also called TP-27 peptide
T21 peptide: ADDQIAQSLCGEDLI
Method: as §1

TP-26 = target: T22, TP-26 (also: biotinylated, site not given here); assay: as above
T22 construct: also called TP-26 peptide
T22 peptide: FRAFAFVTFADDQIA
Method: as §1

TP-30 = target: T23, TP-30 (also: biotinylated, site not given here); assay: as above
T23 construct: also called TP-30 peptide
T23 peptide: PKHNSNRQLERSGRF
Method: as §1

TP-28 = target: T24, TP-28 (also: biotinylated, site not given here); assay: as above
T24 construct: also called TP-28 peptide
T24 peptide: CGEDLIIKGISVHIS
Method: as §1

TDP-1 peptide = target: T25, TDP-1 peptide (human); assay: Luminex bead assay, antibody serial dilution, TDP-1 peptide beads
T25 construct: Immunogen peptide; conjugated to Luminex beads in the assay; also called TDP-43 aa 212-272
T25 peptide: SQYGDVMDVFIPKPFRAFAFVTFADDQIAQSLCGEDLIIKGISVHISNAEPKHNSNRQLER

B1: ACI-7062-401A2-Ab2 (antibody, IgG1, V domains shown)
VH: DVQLVESGGGLVQPGGSRRLSCAASGFTFSRFGMHWVRQAPEKGLEWVAYIRSGSDIIYYADSVKGRFTISRDNPENTLFLQMTSLRSEDTAMYYCARSGTTVPFDYWGQGTSLTVSS
VL: DIVMTQSPSSLAMSVGQKVTMSCKSSQSLLNSGDQKNYLAWYQQKPGQSPELLLYFASTRASGVPDRFIGSGSGTDFSLTISSVQAEDLADYFCQQHYSIPLTFGAGTKLELKR
notes: also called 401A2C6; clone 2
binds: binding result (TDP-215 peptide)
< 0.01 nM: EC50 (TDP-1 peptide)
no binding (tested: about 20000 pM): binding result (TDP-3 peptide)
no binding: binding result (BSA) | binding result (TDP-210 peptide) | binding result (TDP-220 peptide) | binding result (TDP-221 peptide) | binding result (TDP-223 peptide) | binding result (TDP-218 peptide) | binding result (TDP-222 peptide) | binding result (TDP-213 peptide) | binding result (TDP-212 peptide) | binding result (TDP-224 peptide) | binding result (TDP-217 peptide) | binding result (TDP-211 peptide) | binding result (TDP-214 peptide) | binding result (TDP-219 peptide) | binding result (TP-29) | binding result (TP-31) | binding result (TP-27) | binding result (TP-26) | binding result (TP-30) | binding result (TP-28)
1 O.D. (405 nm): OD (TP-25 peptide)
2.5 O.D. (405 nm): OD (TP-24 peptide)

B2: ACI-7062-404D6-Ab2 (antibody, IgG3, V domains shown)
VH: QVTLKESGPGILQPSQTLSLTCSFSGFSLSTYGIGVGWIRQPSGKGLEWLAHIWWNDYKYYNTALKSRLTISKDTSNNRVFLKIASVDTADTATYYCARVYGNLYYFDYWGQGTTLTVSS
VL: DVLMTQTPLSLPVSLGDQASISCRSSQSIVHGSGNTYLEWYLQKPGQSPKLLIYKVSNRFSGVPDRFSGSGSGTDFTLRISRVEAEDLGVYYCFQGSHVPTFGAGTKLELKR
notes: also called 404D6E11; clone 4
< 0.01 nM: EC50 (TDP-1 peptide)
0.9 O.D. (405 nm): OD (TP-25 peptide)
4 O.D. (405 nm): OD (TP-24 peptide)
no binding (tested: about 20000 pM): binding result (TDP-3 peptide)
no binding: binding result (BSA) | binding result (TP-29) | binding result (TP-31) | binding result (TP-27) | binding result (TP-26) | binding result (TP-30)
